Laboratory results as given in IntAct's records for PubMed 25910212.

B1: Keratin, type II cytoskeletal 6A (Homo sapiens), P02538 (parent)
chain: MASTSTTIRSHSSSRRGFSANSARLPGVSRSGFSSVSVSRSRGSGGLGGACGGAGFGSRSLYGLGGSKRISIGGGSCAISGGYGSRAGGSYGFGGAGSGFGFGGGAGIGFGLGGGAGLAGGFGGPGFPVCPPGGIQEVTVNQSLLTPLNLQIDPTIQRVRAEEREQIKTLNNKFASFIDKVRFLEQQNKVLETKWTLLQEQGTKTVRQNLEPLFEQYINNLRRQLDSIVGERGRLDSELRGMQDLVEDFKNKYEDEINKRTAAENEFVTLKKDVDAAYMNKVELQAKADTLTDEINFLRALYDAELSQMQTHISDTSVVLSMDNNRNLDLDSIIAEVKAQYEEIAQRSRAEAESWYQTKYEELQVTAGRHGDDLRNTKQEIAEINRMIQRLRSEIDHVKKQCANLQAAIADAEQRGEMALKDAKNKLEGLEDALQKAKQDLARLLKEYQELMNVKLALDVEIATYRKLLEGEECRLNGEGVGQVNISVVQSTVSSGYGGASGVGSGLGLGGGSSYSYGSGLGVGGGFSSSSGRAIGGGLSSVGGGSSTIKYTTTSSSSRKSYKH
B2: E3 ubiquitin-protein ligase TRIM32 (Homo sapiens), Q13049 (parent)
chain: MAAAAASHLNLDALREVLECPICMESFTEEQLRPKLLHCGHTICRQCLEKLLASSINGVRCPFCSKITRITSLTQLTDNLTVLKIIDTAGLSEAVGLLMCRSCGRRLPRQFCRSCGLVLCEPCREADHQPPGHCTLPVKEAAEERRRDFGEKLTRLRELMGELQRRKAALEGVSKDLQARYKAVLQEYGHEERRVQDELARSRKFFTGSLAEVEKSNSQVVEEQSYLLNIAEVQAVSRCDYFLAKIKQADVALLEETADEEEPELTASLPRELTLQDVELLKVGHVGPLQIGQAVKKPRTVNVEDSWAMEATASAASTSVTFREMDMSPEEVVASPRASPAKQRGPEAASNIQQCLFLKKMGAKGSTPGMFNLPVSLYVTSQGEVLVADRGNYRIQVFTRKGFLKEIRRSPSGIDSFVLSFLGADLPNLTPLSVAMNCQGLIGVTDSYDNSLKVYTLDGHCVACHRSQLSKPWGITALPSGQFVVTDVEGGKLWCFTVDRGSGVVKYSCLCSAVRPKFVTCDAEGTVYFTQGLGLNLENRQNEHHLEGGFSIGSVGPDGQLGRQISHFFSENEDFRCIAGMCVDARGDLIVADSSRKEILHFPKGGGYSVLIREGLTCPVGIALTPKGQLLVLDCWDHCIKIYSYHLRRYSTP
B3: Adenosylhomocysteinase (Homo sapiens), P23526 (parent)
chain: MSDKLPYKVADIGLAAWGRKALDIAENEMPGLMRMRERYSASKPLKGARIAGCLHMTVETAVLIETLVTLGAEVQWSSCNIFSTQDHAAAAIAKAGIPVYAWKGETDEEYLWCIEQTLYFKDGPLNMILDDGGDLTNLIHTKYPQLLPGIRGISEETTTGVHNLYKMMANGILKVPAINVNDSVTKSKFDNLYGCRESLIDGIKRATDVMIAGKVAVVAGYGDVGKGCAQALRGFGARVIITEIDPINALQAAMEGYEVTTMDEACQEGNIFVTTTGCIDIILGRHFEQMKDDAIVCNIGHFDVEIDVKWLNENAVEKVNIKPQVDRYRLKNGRRIILLAEGRLVNLGCAMGHPSFVMSNSFTNQVMAQIELWTHPDKYPVGVHFLPKKLDEAVAEAHLGKLNVKLTKLTEKQAQYLGMSCDGPFKPDHYRY
B4: Keratin, type II cytoskeletal 2 epidermal (Homo sapiens), P35908 (parent)
chain: MSCQISCKSRGRGGGGGGFRGFSSGSAVVSGGSRRSTSSFSCLSRHGGGGGGFGGGGFGSRSLVGLGGTKSISISVAGGGGGFGAAGGFGGRGGGFGGGSSFGGGSGFSGGGFGGGGFGGGRFGGFGGPGGVGGLGGPGGFGPGGYPGGIHEVSVNQSLLQPLNVKVDPEIQNVKAQEREQIKTLNNKFASFIDKVRFLEQQNQVLQTKWELLQQMNVGTRPINLEPIFQGYIDSLKRYLDGLTAERTSQNSELNNMQDLVEDYKKKYEDEINKRTAAENDFVTLKKDVDNAYMIKVELQSKVDLLNQEIEFLKVLYDAEISQIHQSVTDTNVILSMDNSRNLDLDSIIAEVKAQYEEIAQRSKEEAEALYHSKYEELQVTVGRHGDSLKEIKIEISELNRVIQRLQGEIAHVKKQCKNVQDAIADAEQRGEHALKDARNKLNDLEEALQQAKEDLARLLRDYQELMNVKLALDVEIATYRKLLEGEECRMSGDLSSNVTVSVTSSTISSNVASKAAFGGSGGRGSSSGGGYSSGSSSYGSGGRQSGSRGGSGGGGSISGGGYGSGGGSGGRYGSGGGSKGGSISGGGYGSGGGKHSSGGGSRGGSSSGGGYGSGGGGSSSVKGSSGEAFGSSVTFSFR

Variants of: B1
Conditions: with KRT15, P19012
Target sequence in this assay (P19012 whole entry): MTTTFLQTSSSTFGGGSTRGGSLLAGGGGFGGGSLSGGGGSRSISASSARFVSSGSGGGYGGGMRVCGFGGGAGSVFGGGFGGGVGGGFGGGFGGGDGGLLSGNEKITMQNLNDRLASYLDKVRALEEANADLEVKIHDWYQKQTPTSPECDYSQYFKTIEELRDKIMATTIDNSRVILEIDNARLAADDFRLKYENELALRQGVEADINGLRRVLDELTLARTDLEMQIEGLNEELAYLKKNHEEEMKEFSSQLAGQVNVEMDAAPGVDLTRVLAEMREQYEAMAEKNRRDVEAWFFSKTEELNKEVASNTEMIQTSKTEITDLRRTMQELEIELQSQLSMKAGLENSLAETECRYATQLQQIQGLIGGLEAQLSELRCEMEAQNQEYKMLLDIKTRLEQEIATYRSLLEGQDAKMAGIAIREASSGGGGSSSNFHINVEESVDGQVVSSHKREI

effect of a mutation on the interaction	Variant
with no effect	N171K

Variants of: B1
Conditions: with KRT40, Q6A162
Target sequence in this assay (Q6A162 whole entry): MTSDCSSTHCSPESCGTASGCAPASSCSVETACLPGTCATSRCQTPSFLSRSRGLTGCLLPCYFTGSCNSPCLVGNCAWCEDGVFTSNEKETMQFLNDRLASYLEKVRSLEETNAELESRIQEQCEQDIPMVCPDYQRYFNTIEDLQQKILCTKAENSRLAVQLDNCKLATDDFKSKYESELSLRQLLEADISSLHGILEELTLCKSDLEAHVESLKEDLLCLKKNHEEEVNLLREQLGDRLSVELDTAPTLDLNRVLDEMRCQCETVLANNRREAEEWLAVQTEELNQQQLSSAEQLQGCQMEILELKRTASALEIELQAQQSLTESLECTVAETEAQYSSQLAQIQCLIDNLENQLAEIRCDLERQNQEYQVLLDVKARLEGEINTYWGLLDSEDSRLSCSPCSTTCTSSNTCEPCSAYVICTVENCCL

effect of a mutation on the interaction	Variant
with no effect	N171K

Variants of: B1
Conditions: with k1h1_human KRT31, Q15323
Target sequence in this assay (Q15323 whole entry): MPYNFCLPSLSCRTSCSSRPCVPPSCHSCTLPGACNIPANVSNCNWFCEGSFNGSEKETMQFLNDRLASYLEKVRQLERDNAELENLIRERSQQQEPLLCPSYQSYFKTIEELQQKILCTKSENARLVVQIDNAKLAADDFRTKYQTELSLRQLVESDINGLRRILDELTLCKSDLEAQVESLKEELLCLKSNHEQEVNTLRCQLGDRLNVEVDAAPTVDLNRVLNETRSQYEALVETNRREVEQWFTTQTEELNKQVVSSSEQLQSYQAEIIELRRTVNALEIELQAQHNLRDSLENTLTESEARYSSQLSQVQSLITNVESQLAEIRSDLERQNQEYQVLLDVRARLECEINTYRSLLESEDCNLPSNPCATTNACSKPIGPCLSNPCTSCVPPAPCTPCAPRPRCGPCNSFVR

effect of a mutation on the interaction	Variant
with no effect	N171K

Variants of: B1
Conditions: with tfp11_human TFIP11, Q9UBB9
Chain of tfp11_human TFIP11, Q9UBB9 (Q9UBB9 whole entry): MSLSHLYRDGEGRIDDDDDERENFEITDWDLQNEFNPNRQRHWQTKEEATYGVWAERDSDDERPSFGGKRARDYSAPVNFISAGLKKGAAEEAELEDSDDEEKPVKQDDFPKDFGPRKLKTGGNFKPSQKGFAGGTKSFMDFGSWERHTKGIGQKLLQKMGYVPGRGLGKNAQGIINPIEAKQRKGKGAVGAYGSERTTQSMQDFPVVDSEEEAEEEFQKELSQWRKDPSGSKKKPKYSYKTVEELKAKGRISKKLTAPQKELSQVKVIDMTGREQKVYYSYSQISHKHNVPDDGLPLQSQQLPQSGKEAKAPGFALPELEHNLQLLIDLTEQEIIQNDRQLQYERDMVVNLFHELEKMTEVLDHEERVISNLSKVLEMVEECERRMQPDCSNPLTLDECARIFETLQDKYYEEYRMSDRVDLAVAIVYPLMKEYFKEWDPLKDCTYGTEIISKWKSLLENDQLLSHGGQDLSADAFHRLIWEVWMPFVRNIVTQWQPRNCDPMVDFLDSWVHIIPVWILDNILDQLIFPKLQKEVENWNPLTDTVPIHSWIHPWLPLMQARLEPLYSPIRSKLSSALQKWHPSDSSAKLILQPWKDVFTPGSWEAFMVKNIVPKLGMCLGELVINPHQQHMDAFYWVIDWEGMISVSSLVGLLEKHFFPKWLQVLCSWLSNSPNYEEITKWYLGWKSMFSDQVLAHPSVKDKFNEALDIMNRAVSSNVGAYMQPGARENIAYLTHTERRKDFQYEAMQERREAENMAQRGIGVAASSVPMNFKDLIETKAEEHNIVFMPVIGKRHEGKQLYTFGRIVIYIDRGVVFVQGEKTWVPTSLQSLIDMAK

effect of a mutation on the interaction	Variant
with no effect	N171K

Variants of: B1
Conditions: with goga2_human GOLGA2, Q08379
Chain of goga2_human GOLGA2, Q08379 (Q08379 whole entry): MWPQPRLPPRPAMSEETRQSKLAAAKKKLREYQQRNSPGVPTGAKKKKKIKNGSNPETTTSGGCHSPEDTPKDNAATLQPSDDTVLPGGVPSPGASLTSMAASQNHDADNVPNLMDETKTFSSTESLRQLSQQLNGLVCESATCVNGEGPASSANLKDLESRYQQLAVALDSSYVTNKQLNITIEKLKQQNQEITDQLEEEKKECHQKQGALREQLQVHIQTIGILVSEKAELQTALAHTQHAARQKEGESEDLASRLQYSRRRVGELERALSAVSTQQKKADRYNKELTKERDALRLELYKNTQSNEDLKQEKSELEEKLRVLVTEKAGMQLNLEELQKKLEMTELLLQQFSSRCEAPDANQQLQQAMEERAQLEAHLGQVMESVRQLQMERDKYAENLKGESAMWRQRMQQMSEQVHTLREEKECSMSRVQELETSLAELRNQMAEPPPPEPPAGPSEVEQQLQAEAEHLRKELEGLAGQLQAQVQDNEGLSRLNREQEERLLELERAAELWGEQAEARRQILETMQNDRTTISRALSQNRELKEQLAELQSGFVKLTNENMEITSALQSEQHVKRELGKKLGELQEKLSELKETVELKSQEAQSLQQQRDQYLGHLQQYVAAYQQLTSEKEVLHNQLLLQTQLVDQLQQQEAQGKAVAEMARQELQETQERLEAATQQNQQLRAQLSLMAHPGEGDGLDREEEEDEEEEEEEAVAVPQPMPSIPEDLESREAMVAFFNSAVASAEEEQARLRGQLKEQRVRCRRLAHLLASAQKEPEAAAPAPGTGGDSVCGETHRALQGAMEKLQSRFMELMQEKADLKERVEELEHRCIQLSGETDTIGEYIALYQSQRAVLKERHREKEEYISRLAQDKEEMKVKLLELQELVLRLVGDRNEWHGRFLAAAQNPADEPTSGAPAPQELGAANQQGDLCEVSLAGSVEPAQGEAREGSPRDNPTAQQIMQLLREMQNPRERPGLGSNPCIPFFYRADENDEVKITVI

Variant	effect of a mutation on the interaction
N171K	disrupting interaction strength
N21S	with no effect

Now from value to variant:

effect of a mutation on the interaction	Variant
with no effect	F249L
with no effect	V523F
with no effect	T552S

Variants of: B1
Conditions: with KRT15, P19012
Remark: another data set of the same source
Target sequence in this assay (P19012 whole entry): as the sequence (P19012 whole entry) above

effect of a mutation on the interaction	Variant
with no effect	N21S
with no effect	F249L
with no effect	V523F
with no effect	T552S

Variants of: B1
Conditions: with KRT40, Q6A162
Remark: another data set of the same source
Target sequence in this assay (Q6A162 whole entry): as the sequence (Q6A162 whole entry) above

effect of a mutation on the interaction	Variant
with no effect	N21S
with no effect	F249L
with no effect	V523F
with no effect	T552S

Variants of: B1
Conditions: with k1h1_human KRT31, Q15323
Remark: another data set of the same source
Target sequence in this assay (Q15323 whole entry): as the sequence (Q15323 whole entry) above

effect of a mutation on the interaction	Variant
with no effect	N21S
with no effect	F249L
with no effect	V523F
with no effect	T552S

Variants of: B1
Conditions: with tfp11_human TFIP11, Q9UBB9
Remark: another data set of the same source

effect of a mutation on the interaction	Variant
with no effect	N21S
with no effect	F249L
with no effect	V523F
with no effect	T552S

Variants of: B2
Conditions: with PDE9A

effect of a mutation on the interaction	Variant
disrupting interaction strength	D487N
with no effect	P130S
disrupting interaction strength	R394H

Variants of: B2
Conditions: with praf1_human RABAC1, Q9UI14
Chain of praf1_human RABAC1, Q9UI14 (Q9UI14 whole entry): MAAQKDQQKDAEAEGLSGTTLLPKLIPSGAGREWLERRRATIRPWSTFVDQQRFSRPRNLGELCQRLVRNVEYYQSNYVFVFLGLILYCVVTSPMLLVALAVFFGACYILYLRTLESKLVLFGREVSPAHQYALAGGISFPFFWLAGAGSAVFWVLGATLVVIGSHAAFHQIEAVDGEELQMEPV

effect of a mutation on the interaction	Variant
disrupting interaction strength	D487N
with no effect	P130S
disrupting interaction strength	R394H

Variants of: B2
Conditions: with ABI2, Q9NYB9-2
Chain of ABI2, Q9NYB9-2 (Q9NYB9 other isoform, or with tags, fused parts or gaps): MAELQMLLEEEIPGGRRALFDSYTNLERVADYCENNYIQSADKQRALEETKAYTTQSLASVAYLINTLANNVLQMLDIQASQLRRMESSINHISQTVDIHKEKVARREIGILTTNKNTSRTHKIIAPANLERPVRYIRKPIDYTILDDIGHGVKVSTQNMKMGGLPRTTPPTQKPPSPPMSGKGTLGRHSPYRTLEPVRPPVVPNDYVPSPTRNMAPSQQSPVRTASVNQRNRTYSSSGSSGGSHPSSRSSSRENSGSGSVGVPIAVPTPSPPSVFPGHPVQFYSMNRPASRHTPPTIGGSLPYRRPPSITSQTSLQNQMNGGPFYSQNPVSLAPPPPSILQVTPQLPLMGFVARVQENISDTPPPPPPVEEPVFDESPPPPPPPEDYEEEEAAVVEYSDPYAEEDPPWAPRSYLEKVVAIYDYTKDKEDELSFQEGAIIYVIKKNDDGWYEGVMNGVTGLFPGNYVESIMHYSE

effect of a mutation on the interaction	Variant
disrupting interaction strength	D487N
with no effect	P130S
disrupting interaction strength	R394H

Variants of: B2
Conditions: with PDE9A
Remark: another data set of the same source

effect of a mutation on the interaction	Variant
with no effect	R394H

Variants of: B3
Conditions: with ca050_human C1orf50, Q9BV19
Chain of ca050_human C1orf50, Q9BV19 (Q9BV19 whole entry): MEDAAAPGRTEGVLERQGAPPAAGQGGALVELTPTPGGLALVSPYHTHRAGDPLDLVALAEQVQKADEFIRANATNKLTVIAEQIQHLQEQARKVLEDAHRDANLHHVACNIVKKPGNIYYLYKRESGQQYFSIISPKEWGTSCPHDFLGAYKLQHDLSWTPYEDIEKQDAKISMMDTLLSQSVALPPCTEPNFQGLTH

effect of a mutation on the interaction	Variant
with no effect	A89V
with no effect	Y143C
with no effect	D86G

Variants of: B3
Conditions: with ca050_human C1orf50, Q9BV19
Remark: another data set of the same source

effect of a mutation on the interaction	Variant
disrupting interaction strength	D86G

Variants of: B4
Conditions: with KRT15, P19012
Target sequence in this assay (P19012 whole entry): as the sequence (P19012 whole entry) above

effect of a mutation on the interaction	Variant
with no effect	G219D

Variants of: B4
Conditions: with KRT40, Q6A162
Target sequence in this assay (Q6A162 whole entry): as the sequence (Q6A162 whole entry) above

effect of a mutation on the interaction	Variant
with no effect	G219D
disrupting interaction strength	L484P

Variants of: B4
Conditions: with KRT19, P08727
Chain of KRT19, P08727 (P08727 whole entry): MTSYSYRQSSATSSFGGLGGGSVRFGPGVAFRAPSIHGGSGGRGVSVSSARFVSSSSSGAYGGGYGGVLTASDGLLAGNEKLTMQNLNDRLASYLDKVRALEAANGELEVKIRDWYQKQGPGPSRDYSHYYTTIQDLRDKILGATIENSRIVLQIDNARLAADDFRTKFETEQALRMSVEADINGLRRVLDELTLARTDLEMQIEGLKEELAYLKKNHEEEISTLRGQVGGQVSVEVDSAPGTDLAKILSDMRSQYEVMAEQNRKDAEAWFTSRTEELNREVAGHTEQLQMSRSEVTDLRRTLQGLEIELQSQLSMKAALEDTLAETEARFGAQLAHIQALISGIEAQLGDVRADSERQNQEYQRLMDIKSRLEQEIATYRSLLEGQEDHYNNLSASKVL

effect of a mutation on the interaction	Variant
with no effect	G219D
with no effect	L484P

Variants of: B4
Conditions: with k1h1_human KRT31, Q15323
Target sequence in this assay (Q15323 whole entry): as the sequence (Q15323 whole entry) above

effect of a mutation on the interaction	Variant
with no effect	G219D
with no effect	L484P

Variants of: B4
Conditions: with KRT15, P19012
Remark: another data set of the same source
Target sequence in this assay (P19012 whole entry): as the sequence (P19012 whole entry) above

effect of a mutation on the interaction	Variant
with no effect	L484P

Variants of: B4
Conditions: with KRT40, Q6A162
Remark: another data set of the same source
Target sequence in this assay (Q6A162 whole entry): as the sequence (Q6A162 whole entry) above

effect of a mutation on the interaction	Variant
with no effect	L484P

Variants of: B4
Conditions: with k1h1_human KRT31, Q15323
Remark: another data set of the same source
Target sequence in this assay (Q15323 whole entry): as the sequence (Q15323 whole entry) above

effect of a mutation on the interaction	Variant
disrupting interaction strength	L484P
